Experimental data published in patent US12539335B2, “Tricyclic polypeptide conjugated drug and use thereof” (CONJUSTAR (ZHUHAI) BIOLOGICS CO., LTD., priority 2021, dated 2026).
pKd: −log10 of the molar value. Counter-ions that a name gives are not always drawn. Starred links: 1 amine or outer side, 2 acyl side, 3 side chain; linkers in the order of their positions; H or OH if unused. Positions of bridges follow the written chain, without caps; N, C: chain ends. Non-standard residues stand in square brackets, D forms with d. Residues, ends and D or L forms follow the SMILES beside them. Chains are numbered I, II in the order given. *: point of attachment. TATA = O=C(CC[*:1])N1CN(C(=O)CC[*:2])CN(C(=O)CC[*:3])C1; Dolaproine = CO[C@@H]([C@@H]1CCCN1)[C@@H](C)C(=O)O; Dil = CC[C@H](C)[C@H](NC)[C@@H](CC(=O)O)OC; 1Nal = N[C@@H](Cc1cccc2ccccc12)C(=O)O; X2 = O=C(CCCC(=O)[*:2])NCCC(=O)[*:1]; PABC = O=C(OCc1ccc(N[*:1])cc1)[*:2]; X1 = C[C@@H](N*)[C@@H](O)c1ccccc1; Hyp = O=C(O)[C@@H]1C[C@@H](O)CN1; hArg = N=C(N)NCCCC[C@H](N)C(=O)O; Cit = NC(=O)NCCC[C@H](N)C(=O)O; Pen = CC(C)(S)[C@H](N)C(=O)O; NMeV = CN[C@H](C(=O)O)C(C)C; Sar = CNCC(=O)O

Tests used:
[1] = Metabolic stability in hepatocytes, SD rats; format: in vitro ADME; conditions: Sprague-Dawley (SD), rat, hepatocytes (cryopreserved, suspension), 0.5×10^6 cells/mL
Procedure: Test Example 7: Metabolic Stability of the Compounds of the Present Invention in Hepatocytes from Mice, Rats, Cynomolgus Macaques, and Humans
To investigate the metabolic stability of the compounds of the present invention in hepatocytes from mice, rats, Cynomolgus macaques, and humans.
Incubations were performed in 96-well plates using an external extraction method. Several 96-well sample precipitation plates, designated T0, T15, T30, T60, T90, TO-MC, T90-MC, and blank matrix, were prepared, respectively. The recovery culture medium and incubation culture medium were removed in advance and placed in a 37° C. water bath for preheating. […]
At the end of the incubation at the corresponding time point, the incubation plates were removed, from which 25 μL of a compound mixture with the cells and a control compound mixture with the cells were removed and added to sample plates containing 125 μL of stop buffer, respectively. […] All samples were mixed uniformly and then analyzed by the LC-MS/MS method.
The concentration of the compound to be tested and the concentration of the control in the sample were semi-quantitatively determined by the liquid chromatography-tandem mass spectrometry (LC-MS/MS) method without a standard curve and quality control sample. […]

Human Nectin-4 = biological target: T1, Human Nectin-4 (Homo sapiens, UniProt Q96NY8); experiment: Binding capacity to Nectin-4 protein (SPR, Biacore 8K)
T1 construct: purchased GE Healthcare 1006-72
T1 sequence (Q96NY8 32-510): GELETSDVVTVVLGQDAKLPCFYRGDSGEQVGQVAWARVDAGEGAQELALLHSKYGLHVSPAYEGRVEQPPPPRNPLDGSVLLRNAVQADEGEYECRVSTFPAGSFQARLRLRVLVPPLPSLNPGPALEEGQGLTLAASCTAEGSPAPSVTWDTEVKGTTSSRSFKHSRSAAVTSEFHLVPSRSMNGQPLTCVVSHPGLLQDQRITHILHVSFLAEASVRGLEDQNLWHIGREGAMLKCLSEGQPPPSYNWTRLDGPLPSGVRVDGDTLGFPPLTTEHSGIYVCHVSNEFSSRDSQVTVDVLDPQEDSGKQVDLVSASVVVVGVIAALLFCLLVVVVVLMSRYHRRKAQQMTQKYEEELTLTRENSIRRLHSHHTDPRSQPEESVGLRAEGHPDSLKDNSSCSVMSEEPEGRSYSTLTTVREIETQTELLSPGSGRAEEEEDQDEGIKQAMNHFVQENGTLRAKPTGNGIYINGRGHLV
Procedure: Test Example 1. Binding Capacity Test of the Compounds of the Present Invention to Nectin-4 Protein
To detect the affinity of the compound to be tested to the target protein Nectin-4 using the SPR method.
• Biacore 8K (GE Healthcare) • 96-well Plate (Cat #650101, greiner bio-one) • CM5 chip (Cat #BR-1005-30, GE Healthcare) • Amine Coupling Kit (Cat #BR-1000-50, GE Healthcare) • EDC • NHS • 1 M ethanolamine • 10 mM sodium acetate pH 4.5 (Cat #BR-1003-50, GE Healthcare) • DMSO (Cat #D4540, Sigma) • P20 (Cat #BR-1000-54, GE Healthcare) • PBS (Cat #BR-1006-72, GE Healthcare) • Nectin-4 (Cat #1006-72, GE Healthcare) 3. Experimental Protocol
In this experiment, the amino coupling method was used. The target protein Nectin-4 was directly immobilized on the CM5 chip using Biacore 8K. […] The final data were subjected to Kinetics fitting analysis based on a 1:1 model using Biacore Insight Evaluation Software (V 2.0.15.12933).
1) Preparation of the buffer: 10 mM PBS, pH 7.4, 137 mM NaCl, 2.7 mM KCl, 5% DMSO, and 0.05% P20.
2) Activation of the CM5 chip: The CM5 chip was activated with 400 mM EDC and 100 mM NHS at a flow rate of 10 μL/min for 420 seconds.
3) Coupling of the target protein: The target protein was diluted to 10 μg/mL with 10 mM sodium acetate (pH 4.5) and coupled at a flow rate of 10 μL/min for 284 s. The 1 #, 2 #, and 3 #channels on the chip were used in the experiment, and the coupling results were 1639.9RU, 1747.8RU, and 1702.2RU, respectively.
4) Blocking of the CM5 chip: The CM5 chip was blocked with 1 M ethanolamine at a flow rate of 10 μL/min for 420 seconds.
5) Analyte concentration: The compound to be tested was diluted with the buffer. The compound to be tested was diluted from 100 nM to 0.78 nM in a 2-fold gradient.
6) Sample injection analysis: Each concentration of the working solution of the compound to be tested corresponded to one cycle, with a flow rate of 30 μL/min for binding for 180 seconds and dissociating for 180 seconds. The last cycle was a 5% DMSO solvent correction cycle.
7) All results were subjected to kinetics fitting analysis based on a 1:1 model. […]

Q: Which half-life at 1 μM [1] does the source give for `CC[C@H](C)[C@@H]([C@@H](CC(=O)N1CCC[C@H]1[C@H](OC)[C@@H](C)C(=O)N[C@H](C)[C@@H](O)c1ccccc1)OC)N(C)C(=O)[C@@H](NC(=O)[C@H](C(C)C)N(C)C(=O)OCc1ccc(NC(=O)[C@H](CCCNC(N)=O)NC(=O)[C@@H](NC(=O)CCCC(=O)NCCC(=O)N(C)CC(=O)N(C)CC(=O)N(C)CC(=O)N(C)CC(=O)N(C)CC(=O)N(C)CC(=O)N(C)CC(=O)N(C)CC(=O)N(C)CC(=O)N(C)CC(=O)N[C@H]2CCCCNC(=O)C[C@@H](C(=O)N[C@H]3CSCCC(=O)N4CN5CN(C4)C(=O)CCSC(C)(C)[C@H](NC(=O)[C@@H](CC(=O)O)NC(=O)[C@H](Cc4cccc6ccccc46)NC(=O)[C@@H]4CCCN4C3=O)C(=O)N[C@@H](CCSC)C(=O)N[C@@H](CCCCNC(=N)N)C(=O)N[C@@H](CC(=O)O)C(=O)N[C@@H](Cc3c[nH]c4ccccc34)C(=O)N[C@@H](CO)C(=O)N[C@@H]([C@@H](C)O)C(=O)N3CCC[C@H]3C(=O)N3C[C@H](O)C[C@H]3C(=O)N[C@@H](Cc3c[nH]c4ccccc34)C(=O)N[C@H](C(N)=O)CSCCC5=O)NC(=O)CN(C)C2=O)C(C)C)cc1)C(C)C` [Acetate salt of PDC_2] (I: [Sar][Sar][Sar][Sar][Sar][Sar][Sar][Sar][Sar][Sar]K[Sar]DCP[1Nal][dD][Pen]M[hArg]DWSTP[Hyp]WC-NH2 / II: V[Cit][PABC][NMeV]V[Dil][Dolaproine]-X1; lactam I:11-I:13; linker I:14-I:18-I:28 via TATA; linker I:N-II:N via X2) here?
A: The half-life at 1 μM was > 3.61 h.

Q: What about the CLint scaled at 1 μM ([1]; read-out: CLint (liver)) of the same compound?
A: Its CLint scaled at 1 μM is < 29.9 mL/min/kg.

Q: What about the pKd (Human Nectin-4) of the same compound?
A: The pKd was 9.37.
